Assay results published in patent US20220204611A1 (Amgen, published 2022).

T1: human TREM2 on cells (human, UniProt Q9NZC2 19-230)
T1 sequence: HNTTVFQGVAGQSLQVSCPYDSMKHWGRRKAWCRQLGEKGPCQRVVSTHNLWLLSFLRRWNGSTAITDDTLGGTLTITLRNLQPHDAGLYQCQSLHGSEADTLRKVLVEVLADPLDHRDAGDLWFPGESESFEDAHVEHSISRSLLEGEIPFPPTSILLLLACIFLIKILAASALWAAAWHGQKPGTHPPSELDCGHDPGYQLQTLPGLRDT

T2: recombinant soluble human TREM2 protein (human TREM2 ECD-FlagHis) (human, UniProt Q9NZC2 19-174)
T2 sequence: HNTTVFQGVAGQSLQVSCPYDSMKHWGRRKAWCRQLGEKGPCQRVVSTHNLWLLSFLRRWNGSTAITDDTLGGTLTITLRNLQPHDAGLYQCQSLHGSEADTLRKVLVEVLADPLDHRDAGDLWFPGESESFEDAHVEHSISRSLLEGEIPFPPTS

T3: soluble human TREM2 protein (TREM2 ECD-huIgG1 Fc fusion protein) (human, UniProt Q9NZC2 19-174, biotinylated)
T3 construct: also called biotinylated soluble human TREM2 protein
T3 sequence: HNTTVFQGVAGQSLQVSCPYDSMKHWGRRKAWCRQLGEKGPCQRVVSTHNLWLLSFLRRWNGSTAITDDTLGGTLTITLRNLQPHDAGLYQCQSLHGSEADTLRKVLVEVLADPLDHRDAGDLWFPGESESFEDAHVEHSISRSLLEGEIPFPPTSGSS


How the values were obtained:
human TREM2 on cells [1] = target: T1, human TREM2 on cells; experiment: cell-based or functional assay
human TREM2 on cells [2] = target: T1, human TREM2 on cells; experiment: cell-based or functional assay; remark: listed apart in the source
[3] = target: T2, recombinant soluble human TREM2 protein …; experiment: Octet BLI binning; competitor: load Ab 5E3
Method: (§1) Each of sixteen different anti-TREM2 antibodies produced from hybridomas were quantitated and loaded onto one of the anti-human Fc sensors at 5 μg/mL for 2 minutes (“Load Antibody”). The sensor was then blocked with 100 μg/mL of an irrelevant human IgG2 antibody for 5 minutes. […] Next, each of the sixteen different anti-TREM2 antibodies (“Sandwich Antibody”) was added to the sensor at 5 μg/mL and allowed to bind for 5 minutes. All assay buffers contained 10 mM Tris (pH 7.6), 0.1% Triton X-100, 150 mM NaCl, 1 mM CaCl₂, and 1 mg/mL BSA. The assay was conducted at 25° C. Experimental kinetic results were fit to a 1:1 binding model.
(§2) However, if addition of the sandwich antibody produces a binding event, then the sandwich antibody binds to a different epitope on human TREM2 than the load antibody and the two antibodies are categorized into different epitope bins.

[4] = target: T2, recombinant soluble human TREM2 protein …; experiment: Octet BLI binning; competitor: load Ab 6E7
Method: as §1, §2

[5] = target: T2, recombinant soluble human TREM2 protein …; experiment: Octet BLI binning; competitor: load Ab 10E3
Method: as §1, §2

[6] = target: T2, recombinant soluble human TREM2 protein …; experiment: Octet BLI binning; competitor: load Ab 13E7
Method: as §1, §2

[7] = target: T2, recombinant soluble human TREM2 protein …; experiment: Octet BLI binning; competitor: load Ab 16B8
Method: as §1, §2

[8] = target: T2, recombinant soluble human TREM2 protein …; experiment: Octet BLI binning; competitor: load Ab 24F4
Method: as §1, §2

[9] = target: T2, recombinant soluble human TREM2 protein …; experiment: Octet BLI binning; competitor: load Ab 24G6
Method: as §1, §2

[10] = target: T2, recombinant soluble human TREM2 protein …; experiment: Octet BLI binning; competitor: load Ab 26F2
Method: as §1, §2

[11] = target: T2, recombinant soluble human TREM2 protein …; experiment: Octet BLI binning; competitor: load Ab 32E3
Method: as §1, §2

[12] = target: T2, recombinant soluble human TREM2 protein …; experiment: Octet BLI binning; competitor: load Ab 24A10
Method: as §1, §2

[13] = target: T2, recombinant soluble human TREM2 protein …; experiment: Octet BLI binning; competitor: load Ab 25F12
Method: as §1, §2

[14] = target: T2, recombinant soluble human TREM2 protein …; experiment: Octet BLI binning; competitor: load Ab 26A10
Method: as §1, §2

[15] = target: T2, recombinant soluble human TREM2 protein …; experiment: Octet BLI binning; competitor: load Ab 26C10
Method: as §1, §2

[16] = target: T3, soluble human TREM2 protein (TREM2 …); experiment: ELISA, hybridoma supernatant on captured biotinylated TREM2 ECD-Fc
Method: Exhausted hybridoma supernatants were tested for binding to human TREM2 by ELISA. Briefly, neutravidin plates were generated by incubating a 384 well Corning Assay Plate 3702 with neutravidin (Thermo 3100B) at 10 μg/mL (40 μL/well) in 1× PBS at 4° C. overnight. The plates were washed with 1× PBS using a Biotek plate washer and then blocked with 1% milk/1× PBS (90 μL/well) at room temperature (RT) for 30 minutes. The plates were then washed again with 1× PBS using the plate washer. […] The plates were then incubated at RT for 1 hour to immobilize the TREM2 protein to the wells of the plates. Following the incubation, the plates were again washed with 1× PBS using the plate washer. 10 μL of each hybridoma supernatant to be tested and 40 μL of 1% milk/1× PBS (1:5 dilution) were added to each well of the plates and incubated at RT for 1 hour. Again, the plates were washed with 1× PBS using the plate washer. […] After the plates were washed with 1× PBS using the plate washer, 40 μL/well of TMB substrate (Neogen, lot #150114) was added to the plates and the plates were incubated at RT for 30 minutes. The reaction was quenched with 1N hydrochloric acid (40 uL/well) following the incubation period. OD readings at 450 nm were obtained with a plate reader.

[17] = target: T2, recombinant soluble human TREM2 protein …; experiment: Octet BLI binning; competitor: load Ab 33B12
Method: as §1, §2

| Binder | pSyk EC50 (human TREM2 on cells [1]) [nM] | Emax (% maximum activation compared to RnD antibody) (human TREM2 on cells [2]) [%] | pSyk EC50, differentiated THP-1 cells (human TREM2 on cells [2]) [nM] | sandwich binding signal [3] | sandwich binding signal [4] | sandwich binding signal [5] | sandwich binding signal [6] | sandwich binding signal [7] | sandwich binding signal [8] | sandwich binding signal [9] | sandwich binding signal [10] | sandwich binding signal [11] | sandwich binding signal [12] | sandwich binding signal [13] | sandwich binding signal [14] | sandwich binding signal [15] | OD 450 [16] [OD450] | sandwich binding signal [17] |
| --- | --- | --- | --- | --- | --- | --- | --- | --- | --- | --- | --- | --- | --- | --- | --- | --- | --- | --- |
| 33B12 (antibody, V domains shown, human IgG2 from hybridoma) VH: EVQLVESGGALVQPGGSLRLSCAASGFTFSSFGMSWVRQAPGKGLEWVSYISKSSFTIYYADSVKGRFTISRDNAKNSFYLQMNSLRDEDTAVYYCAREGGLTMVRGVSSYGLDVWGQGTTVTVSS VL: not shown | 1 | 246 | 2.85 | -0.015 | 0.52 | 0.271 | 0.287 | -0.017 | 0.454 | 0.388 | 0.002 | 0.384 | 0.47 | 0.345 | 0.023 | -0.009 | 1.34 | – |
| 26A10 (antibody, V domains shown, human IgG2 from hybridoma) VH: EVQLVESGGALVQRGGSLRLSCAASRFTFSSFGMSWVRQAPGKGLEWVSYISSSSFTIYYADSVKGRFTISRDNAKNSFYLQMNSLRDEDTAVYYCAREGGLTMVRGVSSYGLDVWGQGTTVTVSS VL: not shown | 1.3 | – | – | -0.027 | 0.491 | 0.259 | 0.272 | -0.018 | 0.449 | 0.354 | -0.016 | 0.362 | 0.454 | 0.343 | -0.001 | -0.033 | 1.16 | -0.02 |
| 26C10 (antibody, human IgG2, V domains shown, human IgG2 from hybridoma) VH: EVQLVESGGALVQPGGSLRLSCAASGFTFSSFGMSWVRQAPGKGLEWVSYISSSSFTIYYADSVKGRFTISRDNAKNSFYLQMNSLRDEDTAVYFCVREGGITMVRGVSSYGMDVWGQGTTVTVSS VL: SFELTQPPSVSVSPGQTASITCSGDKLGDKYVCWYQQKPGQSPMLVIYQDTKRPSGIPERFSGSNSGNTATLTISGTQAMDEADYYCQAWDSSTVVFGGGTKLTVL | 2.2 | – | – | -0.042 | 0.594 | 0.285 | 0.323 | -0.031 | 0.552 | 0.384 | -0.015 | 0.419 | 0.541 | 0.418 | – | -0.032 | 1.59 | -0.033 |
| 16B8 (antibody, human IgG4, V domains shown, human IgG4 (G4) from hybridoma) VH: QVQLVQSGAEVKKPGASVKVSCKASGYTFTNYGISWVRQAPGQGLEWMGWISAYNGNTNYAQKLQGRVTMTTDTSTSTVYMELRSLRSDDTAVYYCARRGYSYGSFDYWGQGTLVTVSS VL: DIQMTQSPSSVSASVGDRVTVTCRASQDINSWLAWYQQKPGKAPKLLIYAASSLQTGVPSRFSGSGSGTDFTLTISSLQPEDFATYSCQQSNSFPITFGQGTRLEIK | – | 140 | 0.418 | -0.004 | 0.504 | 0.28 | 0.312 | -0.009 | 0.454 | 0.369 | 0.031 | 0.4 | 0.423 | 0.399 | 0.028 | 0.006 | 0.59 | 0.007 |
| 24A10 (antibody, human IgG2, V domains shown, human IgG2 from hybridoma) VH: EVQVLESGGGLVQPGGSLRLSCAASGFTFSNYAMSWVRQAPGKGLEWVSAISGSGGSTYYADSVKGRFTISRDNSKNTLYLQMNSLRAEDTAVYYCAKGGWELFYWGQGTLVTVSS VL: not shown | 32.9 | – | – | 0.53 | 0.616 | 0.347 | 0.375 | 0.481 | 0.585 | -0.031 | 0.544 | 0.461 | 0.023 | 0.509 | 0.596 | 0.605 | 2.75 | 0.439 |
| 24F4 (antibody, human IgG2, V domains shown, human IgG2 from hybridoma) VH: EVQLVQSGAEVKKPGESLKISCKGSGYTFTSYWIGWVRQMPGKGLEWMGIIYPGDSDTRYSPSFQGQVTISVDKSSSTAYLQWSSLKASDTAIYYCTRQAIAVTGLGGFDPWGQGTLVTVSS VL: EIVLTQSPGTLSLSPGERATLSCRASQSVSSSYLAWYQQKPGQAPRLLIYGASSRATGIPDRFSGSGSGTDFTLTISRLEPEDFALYYCQQYDTSPFTFGPGTKVDIK | 2.4 | – | – | 0.311 | -0.039 | -0.032 | -0.015 | 0.27 | 0.038 | 0.251 | 0.282 | -0.001 | 0.335 | 0.244 | 0.319 | 0.346 | – | 0.25 |
